Measured values: paper PMC6957267 (Molecular cancer therapeutics, 2012)

B1: Fab m610.27 (Fab, V domains shown)
VH: QVQLVQSGAEVKKPGASVKVSCKASGYTFTSYYMHWVRQAPGQGLEWMGIINPSGGSTSYAQKFQGRVTMTRDTSTSTVYMELSRLRSDDTAVYYCARDVQWLAYGMDVWGQGTTVTVSS
VL: DIQMTQSPSSLSASVGDRVTITCRASQSISSYLNWYQQKPGRAPDLLINAASSLQSGVPSRFSGSGSGTDFTLTISSLQPEDFATYFCQQSYSLPFTFGGGTKVEIK
B2: m610 (human mAb to IGF-II), Fab (Fab, V domains shown)
VH: B1 VH
VL: not shown

Molecular target: Mature human IGF-II (insulin-like growth factor II) (human)
Test: ELISA

| Binder | EC50 [nM] |
| --- | --- |
| B1 | 5 |
| B2 | 20 |
